Where a chain is given by its changes, count along the chain named.
T1: recombinant human PDGF-CC core domain protein (activated PDGF-CC, growth factor domain) (human, UniProt Q9NRA1 230-345)
T1 chain: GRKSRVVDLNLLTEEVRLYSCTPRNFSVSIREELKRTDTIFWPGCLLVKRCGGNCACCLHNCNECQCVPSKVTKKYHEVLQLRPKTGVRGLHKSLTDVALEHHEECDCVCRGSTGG

B1: monoclonal anti-PDGF-CC antibody 6B3 (antibody, V domains shown)
VH: QVQLQQSGVEVARPGASVKLSCKASGYTFRSYGITWVRQRTGQGLEWIGEIYPRSGKTYYNEKFKGKATLTADTSSSTVYMELRSLTSEDSAVYFCAREGYGYDGGYFDYWGQGTTLTVSS
VL: DIVMTQSPSSLAMSVGQKVTMSCKSSQSLLNSRNQKNYLAWYQQKPGQSPKLLVYFASTRESGVPDRFTGSGSGTDFTLTISSVQAEDLAVYYCQQHYSTPLTFGAGTKLELK
B2: monoclonal anti-PDGF-CC antibody 19C7 (antibody, V domains shown)
VH: B1 VH
VL: B1 VL
B3: monoclonal anti-PDGF-CC antibody 11F5 (antibody, V domains shown)
VH: QVQLQQSGAELARPGASVKLSCKASGYIFISYGISWVKQRTGQGLEWIGEIYPRSGKTYYNEKFKDKAALTADKSSSIAYMELRSLTSEDSAVYFCAREGYGYDGGYFDYWGQGTILTVSS
VL: B1 VL with T20A, M21V, R33S, E61D

Target: T1, recombinant human PDGF-CC core domain …
Test: SPR

koff | Binder
0.0015 s⁻¹ | B1
0.0016 s⁻¹ | B2
0.00058 s⁻¹ | B3
